According to patent publication US20040043401A1 (SLOAN KETTERING INSTITUTE FOR CANCER RESEARCH, published 2004):

Target: human prostate-specific membrane antigen (PSMA) (human, UniProt Q04609 1-750)
Experiment: cell-based or functional assay

Chain of human prostate-specific membrane antigen (PSMA) (Q04609 whole entry): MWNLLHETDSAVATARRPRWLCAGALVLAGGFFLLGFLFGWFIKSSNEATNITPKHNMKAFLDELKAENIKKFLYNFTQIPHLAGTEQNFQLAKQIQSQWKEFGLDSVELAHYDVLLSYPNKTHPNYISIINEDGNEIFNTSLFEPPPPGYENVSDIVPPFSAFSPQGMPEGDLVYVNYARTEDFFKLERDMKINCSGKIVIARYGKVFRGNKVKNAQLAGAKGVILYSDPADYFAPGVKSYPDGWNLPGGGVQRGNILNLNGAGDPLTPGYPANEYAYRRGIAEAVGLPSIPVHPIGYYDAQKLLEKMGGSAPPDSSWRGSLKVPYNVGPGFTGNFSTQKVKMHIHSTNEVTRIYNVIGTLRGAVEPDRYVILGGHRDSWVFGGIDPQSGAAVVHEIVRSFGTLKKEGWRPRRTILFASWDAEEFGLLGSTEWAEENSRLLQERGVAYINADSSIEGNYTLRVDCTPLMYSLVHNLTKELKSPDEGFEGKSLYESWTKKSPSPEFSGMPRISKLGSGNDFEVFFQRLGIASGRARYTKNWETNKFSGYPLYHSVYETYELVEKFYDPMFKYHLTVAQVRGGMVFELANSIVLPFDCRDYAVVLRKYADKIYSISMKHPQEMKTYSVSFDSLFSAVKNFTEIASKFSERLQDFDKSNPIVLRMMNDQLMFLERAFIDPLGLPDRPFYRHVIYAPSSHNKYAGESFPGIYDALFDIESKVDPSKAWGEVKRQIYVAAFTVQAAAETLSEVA

B1: P28z fusion receptor (J591 scFv - human CD28 hinge, transmembrane and intracellular portions - intracellular domain of human TCR zeta) (receptor, not shown: a dimerising Fc or GST; small tags and cut ends)
chain: IEVMYPPPYLDNEKSNGTIIHVKGKHLCPSPLFPGPSKPFWVLVVVGGVLACYSLLVTVAFIIFWVRSKRSRLLHSDYMNMTPRRPGPTRKHYQPYAPPRDFAAYRSRVKFSRSADAPAYQQGQNQLYNELNLGRREEYDVLDKRRGRDPEMGGKPRRKNPQEGLYNELQKDKMAEAYSEIGMKGERRRGKGHDGLYQGLSTATKDTYDALHMQALPPR
- expansion in total cell number after re-stimulation with PSMA, seven days: 4 fold
- expansion of transduced T cells on NIH3T3 cells expressing PSMA alone, seven days: 8.6 fold
